Results on five molecules are retold here after paper PMC2993495 (Molecular cell, 2009).

Numbering of substitutions follows the chain as printed. “And” between values parts separate entries of the source, which are not always exact repeats. Identical values can stand only once.

The target of experiment [1] is His6-tagged wild-type Mms21 (budding yeast (S. cerevisiae)) (UniProt P38632). Nature of the experiment: ITC.
The target of experiment [2] is Mms21-M1, His6-tagged (budding yeast (S. cerevisiae)) (UniProt P38632). Nature of the experiment: pull-down.
The target of another experiment is T1, Smc5-TAF (budding yeast (S. cerevisiae), UniProt Q08204 1-1093).
T1 sequence (looked up): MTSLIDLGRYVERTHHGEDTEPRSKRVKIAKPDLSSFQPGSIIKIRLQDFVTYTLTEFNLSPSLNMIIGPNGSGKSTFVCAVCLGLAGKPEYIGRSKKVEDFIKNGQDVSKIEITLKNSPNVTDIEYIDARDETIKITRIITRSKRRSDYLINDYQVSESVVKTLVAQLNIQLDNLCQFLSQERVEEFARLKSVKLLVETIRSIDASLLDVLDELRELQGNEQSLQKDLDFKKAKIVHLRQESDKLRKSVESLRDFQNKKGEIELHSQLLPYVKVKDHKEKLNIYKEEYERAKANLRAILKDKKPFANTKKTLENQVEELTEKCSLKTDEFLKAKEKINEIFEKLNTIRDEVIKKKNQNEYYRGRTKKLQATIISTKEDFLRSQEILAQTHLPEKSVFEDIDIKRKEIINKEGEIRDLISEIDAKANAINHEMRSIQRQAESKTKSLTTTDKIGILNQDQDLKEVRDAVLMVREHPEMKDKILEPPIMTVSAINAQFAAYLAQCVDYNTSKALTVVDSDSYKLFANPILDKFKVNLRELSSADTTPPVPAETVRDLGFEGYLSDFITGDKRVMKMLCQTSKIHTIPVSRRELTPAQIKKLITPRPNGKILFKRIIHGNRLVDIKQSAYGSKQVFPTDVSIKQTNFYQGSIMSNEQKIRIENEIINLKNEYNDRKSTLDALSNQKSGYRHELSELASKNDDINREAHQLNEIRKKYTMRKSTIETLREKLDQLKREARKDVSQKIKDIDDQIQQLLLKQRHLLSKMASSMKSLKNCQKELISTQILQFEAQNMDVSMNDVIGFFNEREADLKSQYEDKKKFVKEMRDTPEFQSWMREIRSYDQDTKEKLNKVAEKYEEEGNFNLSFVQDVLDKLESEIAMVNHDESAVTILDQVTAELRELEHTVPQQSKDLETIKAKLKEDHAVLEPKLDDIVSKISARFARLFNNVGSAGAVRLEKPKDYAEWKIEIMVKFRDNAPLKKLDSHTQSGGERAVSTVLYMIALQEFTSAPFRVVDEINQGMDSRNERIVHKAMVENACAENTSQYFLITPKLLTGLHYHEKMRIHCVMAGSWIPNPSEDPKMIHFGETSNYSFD
As to the kind of experiment: co-IP.

Experiment [3] concerns the target T2, Mms21, full length (crystallised complex) (budding yeast (S. cerevisiae), UniProt P38632 1-267).
T2 sequence (looked up): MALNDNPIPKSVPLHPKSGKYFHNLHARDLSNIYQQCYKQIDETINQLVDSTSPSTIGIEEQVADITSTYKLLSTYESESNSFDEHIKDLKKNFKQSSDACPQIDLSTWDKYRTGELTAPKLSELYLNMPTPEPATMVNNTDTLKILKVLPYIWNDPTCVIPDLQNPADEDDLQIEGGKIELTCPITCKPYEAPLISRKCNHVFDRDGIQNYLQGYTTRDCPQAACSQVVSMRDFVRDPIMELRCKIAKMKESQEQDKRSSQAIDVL
Nature of the experiment: crystal structure.

On to “GST-Smc5-arm (from UniProt Q08204 302-369; Q08204 733-813) (domain or fragment)”, for which the dH in experiment [1] was -18.2 kcal/mol and -22 kcal/mol. Further, in experiment [2], the Smc5 binding, percent of wild-type (% of wild-type) was found to be 84.

B1: mms21-M1-3HA (natural protein, budding yeast (S. cerevisiae))
chain: T2 sequence (looked up) with P9A, V12A, L14A, H15A
Take B1: the “Smc5 binding, percent of wild-type” value with Smc5-TAF was 5 % of wild-type.

B2: mms21-M5-3HA (natural protein, budding yeast (S. cerevisiae))
chain: T2 sequence (looked up) with Y76A, E79A, S80A, F83A
Turning to B2, the “Smc5 binding, percent of wild-type” value with Smc5-TAF is 66 % of wild-type.

B3: mms21-M3-3HA (natural protein, budding yeast (S. cerevisiae))
chain: T2 sequence (looked up) with I33A, Y34A, C37A
Turning to B3, in the experiment with Smc5-TAF, the “Smc5 binding, percent of wild-type” value was 30 % of wild-type.

B4: Smc5 arm chimera (Asp302-Leu369, Gly-Ser-Gly-Ser linker, Lys733-Gln813), 6xHis-tagged (domain or fragment, budding yeast (S. cerevisiae))
chain: DKKPFANTKKTLENQVEELTEKCSLKTDEFLKAKEKINEIFEKLNTIRDEVIKKKNQNEYYRGRTKKLGSGSKREARKDVSQKIKDIDDQIQQLLLKQRHLLSKMASSMKSLKNCQKELISTQILQFEAQNMDVSMNDVIGFFNEREADLKSQ
As to B4, in experiment [3], the binding result is given as “binds”.
